The text below walks through data of patent publication US6641809.

Some results are limits rather than exact numbers.

In assay [1] the target is B7 antigen (human) (UniProt P33681). In words: flow cytometry, 1A2 cells preincubated with unlabeled BB-1. Background: A flow cytometer gives signals particle by particle.
Assay [2] shares this target. In words: flow cytometry, direct staining of THP-1 cells (AML, negative for CD28 adhesion; presence of B7 not shown).
Assay [3] shares this target. Description: flow cytometry, Raji cells; (- cold) minus (+ cold).
Assay [4] has the same target. Description: flow cytometry, Jijoye cells; (- cold) minus (+ cold).
For assay [5] the target is unchanged. Description: flow cytometry, direct staining of Namalwa cells (BL, negative for CD28 adhesion; presence of B7 not shown).
The target is the same in assay [6]. In words: flow cytometry, direct staining of Jijoye cells (BL, positive for CD28 adhesion).
Assay [7] has the same target. In words: flow cytometry, CEM cells preincubated with unlabeled BB-1.
The target is the same in assay [8]. In words: flow cytometry, HSB2 cells preincubated with unlabeled BB-1.
The target is the same in assay [9]. Description: flow cytometry, THP-1 cells preincubated with unlabeled BB-1.
For assay [10] the target is unchanged. Description: flow cytometry, direct staining of HSB2 cells (T-ALL, negative for CD28 adhesion; presence of B7 not shown).
For assay [11] the target is unchanged. Description: flow cytometry, HL60 cells preincubated with unlabeled BB-1.
Assay [12] shares this target. In words: flow cytometry, direct staining of 5E1 cells (B-LCL, positive for CD28 adhesion).
For assay [13] the target is unchanged. Description: flow cytometry, Daudi cells; (- cold) minus (+ cold).
For assay [14] the target is unchanged. Description: flow cytometry, direct staining of Daudi cells (BL, positive for CD28 adhesion).
The target is the same in assay [15]. In words: flow cytometry, Namalwa cells (negative for CD28 adhesion); (- cold) minus (+ cold).
For assay [16] the target is unchanged. In words: flow cytometry, direct staining of HL60 cells (AML, negative for CD28 adhesion; presence of B7 not shown).
Assay [17] has the same target. Description: flow cytometry, Daudi cells preincubated with unlabeled BB-1.
The target is the same in assay [18]. In words: flow cytometry, direct staining of 1A2 cells (B-LCL, negative for CD28 adhesion; presence of B7 not shown).
The target is the same in assay [19]. Description: cell-based or functional assay.
The target is the same in assay [20]. Description: flow cytometry, Raji cells preincubated with unlabeled BB-1.
Assay [21] shares this target. Description: flow cytometry, 5E1 cells preincubated with unlabeled BB-1.
For assay [22] the target is unchanged. In words: flow cytometry, T51 cells preincubated with unlabeled BB-1.
For assay [23] the target is unchanged. Description: flow cytometry, T51 cells; (- cold) minus (+ cold).
The target is the same in assay [24]. Description: flow cytometry, direct staining of T51 cells (B-LCL, positive for CD28 adhesion).
For assay [25] the target is unchanged. In words: flow cytometry, direct staining of Raji cells (BL, positive for CD28 adhesion).
Assay [26] shares this target. In words: adhesion of Jijoye cells to CD28+ CHO cells in 10 mM EDTA, BB-1 below 1 µg/ml.
For assay [27] the target is unchanged. Description: flow cytometry, Jijoye cells preincubated with unlabeled BB-1.
Assay [28] has the same target. Description: flow cytometry, 5E1 cells; (- cold) minus (+ cold).
Assay [29] shares this target. Description: adhesion of T51 cells to CD28+ CHO cells, screen of a mAb panel.
In assay [30] the target is CD28 receptor (human) (UniProt P10747). Description: cell-based or functional assay.
For assay [31] the target is unchanged. Description: inhibition of adhesion of PM lymphoblastoid cells to CD28+ CHO monolayers.
Assay [32] shares this target. Description: adhesion of T51 cells to CD28+ CHO cells, mAb 9.3 at 10 µg/ml without EDTA.
Assay [33] shares this target. In words: adhesion of B7-transfected COS cells to CD28+ CHO cells, EDTA omitted.
Assay [34] has the same target. In words: adhesion of T51 cells to CD28+ CHO cells, mAb 9.3 at 10 µg/ml plus EDTA.

Sequence of B7 antigen (human) (P33681 35-288): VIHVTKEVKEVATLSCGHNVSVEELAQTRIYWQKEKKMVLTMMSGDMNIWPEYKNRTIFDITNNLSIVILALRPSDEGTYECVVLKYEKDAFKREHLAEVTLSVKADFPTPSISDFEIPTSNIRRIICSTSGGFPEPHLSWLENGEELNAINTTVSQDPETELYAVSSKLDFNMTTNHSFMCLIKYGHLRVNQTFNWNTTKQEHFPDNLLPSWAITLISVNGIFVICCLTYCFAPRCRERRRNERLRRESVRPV

Consider mAb BB-1 (anti-B7) (antibody), for which the mean fluorescence (linear units), + COLD in [1] amounted to 4.3 linear units; in assay [7], 1.9 linear units; in [8], 2.3 linear units; in [9], 3 linear units; in assay [11], 3.1 linear units; in assay [17], 2.8 linear units. In addition, the mean fluorescence (linear units), + COLD in assay [20] amounted to 2.8 linear units; in assay [21] it was 2.4 linear units; in assay [22], 3 linear units; in assay [27] it was 2.8 linear units. Besides, the mean fluorescence (linear units), - COLD is 3.1 linear units in [2]; 3.8 linear units in assay [5]; 17.8 linear units in [6]; 2.3 linear units in assay [10]; 13 linear units in [12]; 6.4 linear units in assay [14]. Also, the mean fluorescence (linear units), - COLD in assay [16] turned out to be 3.1 linear units; in assay [18], 4.5 linear units; in assay [24], 16.4 linear units; in [25], 7.1 linear units. Also, the SPECIFIC BINDING (mean fluorescence, linear units) amounted to 4.3 linear units in assay [3]; 15 linear units in assay [4]; 3.6 linear units in assay [13]; 1.6 linear units in assay [15]; 13.4 linear units in [23]; 10.6 linear units in [28]. Further, in [19], the [3H]-T incorporation, PHA blasts stimulated with B7+ CHO (40:1), with BB-1 at 10 µg/ml was 98300 cpm. The percent of adhesion blocked in assay [26] turned out to be 60%. In [29], this substance had a percent of CD28-mediated adhesion blocked above 30%.

Consider mAb 9.3 (Fab fragments), for which the [3H]-T incorporation, PHA blasts stimulated with B7+ CHO (40:1), with 9.3 Fab at 10 µg/ml in assay [30] is 132000 cpm.

“B7Ig fusion protein (from UniProt P33681 35-215; P01857 99-330) (Fc fusion)”: in assay [30], the [3H]-T incorporation, PBL, + Anti-CD3, B7Ig (immob.), Exp. 1 amounted to 174000 cpm and the [3H]-T incorporation, PBL, - Anti-CD3, B7Ig (immob.), Exp. 1 came out at 100 cpm.

For “Monoclonal antibody (mAb) 9.3 (anti-CD28)”, in assay [31], the IC50 (as a rule, the concentration at which inhibition is half-maximal) amounted to 0.01 µM. This substance also gave a percent reduction of adhesion in assay [32] of 62%. Also, in assay [30], the [3H]-T incorporation, PBL, + Anti-CD3, mAb 9.3 (immob.), Exp. 1 came out at 137000 cpm; the [3H]-T incorporation, PBL, + Anti-CD3, mAb 9.3 (soln.), Exp. 1 was found to be 156000 cpm; the [3H]-T incorporation, PBL, + Anti-CD3, mAb 9.3 (soln.), Exp. 2 came out at 75800 cpm; the [3H]-T incorporation, PBL, - Anti-CD3, mAb 9.3 (immob.), Exp. 1 was found to be 100 cpm. In [30], this substance displayed a [3H]-T incorporation, PBL, - Anti-CD3, mAb 9.3 (soln.), Exp. 1 of 300 cpm and a [3H]-T incorporation, PBL, - Anti-CD3, mAb 9.3 (soln.), Exp. 2 of 400 cpm. The substance further came in with a percent of adhesion blocked in assay [33] of 40%. In assay [34], the percent reduction of adhesion is 93%.
